Experimental findings from patent US20100316616A1 are described below.

The assay has as its target His-tagged mouse Wnt3a (mouse) (UniProt P27467). Description: cell-based or functional assay.

A value given as a limit tells only on which side of the number the result lay.

Sequence of UniProt P27467 (P27467 19-352): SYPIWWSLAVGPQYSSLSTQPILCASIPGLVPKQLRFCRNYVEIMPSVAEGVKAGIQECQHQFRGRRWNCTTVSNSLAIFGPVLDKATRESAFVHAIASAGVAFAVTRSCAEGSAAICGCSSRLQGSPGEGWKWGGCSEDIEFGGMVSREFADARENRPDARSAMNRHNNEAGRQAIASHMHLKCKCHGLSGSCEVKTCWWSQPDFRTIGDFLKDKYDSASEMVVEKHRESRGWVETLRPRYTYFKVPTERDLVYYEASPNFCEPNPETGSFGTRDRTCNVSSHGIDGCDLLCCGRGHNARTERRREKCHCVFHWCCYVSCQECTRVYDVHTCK

With “human FZC18 (from UniProt P39060 216-450)”, the decrease in Wnt3a-induced CRT (beta-catenin-TCF-regulated transcription), TCF-responsive reporter in HEK293T and Huh-7 cells is over 80%.
“human V3Nter (from UniProt P39060 24-497)”: the decrease in Wnt3a-induced CRT (beta-catenin-TCF-regulated transcription), TCF-responsive reporter in HEK293T and Huh-7 cells was over 80%.
